From patent US20170052184A1 (published 2017)

T1: HCV Core1-169 (HCV-1, UniProt P26664 1-169)
T1 construct: also called recombinant HCV core antigen
T1 sequence: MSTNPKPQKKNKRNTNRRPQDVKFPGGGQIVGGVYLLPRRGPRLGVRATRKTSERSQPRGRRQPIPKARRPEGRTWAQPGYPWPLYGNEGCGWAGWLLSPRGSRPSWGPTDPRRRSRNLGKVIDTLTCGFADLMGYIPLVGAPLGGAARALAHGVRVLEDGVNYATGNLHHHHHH


How the values were obtained:
HCV Core1-169 [1] = target: T1, HCV Core1-169; assay: EIA, core1-169 coated on plate
HCV Core1-169 [2] = target: T1, HCV Core1-169; assay: EIA, core1-169 captured by mAb 14-153-229
Further: test concentration or dose not given here.

Binder	OD (A492) (HCV Core1-169 [1]) [OD]	OD (A492) (HCV Core1-169 [2]) [OD]
HCV 208B-911 (antibody, V domains shown) VH: QVHLQQPGAELVRPGVSVKLSCKASGYTFTTYSINWMKQRPGQGLEWIGNIYPSTSHTNYNQKFRDKATMTVDKSSSTAYMQLSSPTSEDSAVYYCTINAYSMDYWGQGTSVTVSS VL: QIVLTQSPEIMSASPGEKVTITCSASSSVSFMYWFQQKPGTSPKLWIYITSNLASGVPTRFSGSGSGTSYSLTISRMEAEDAATYYCQQRSSFPYTFGGGTKLEMKR	1.18	0.14
HCV 208B-826 (antibody, V domains shown) VH: DVQLVESGGGLVQAGGSRKLSCAASGFPFSSFGMHWVRQAPEKGLEWVASISSRTSKIYYADNLKGRFTISRDNPKNTLFLQMTSLGSEDTAMYYCVRSVFGNSYWFFDVWGAGTTVTVSS VL: DIVLTQSPATLSVTPGDRVSLSCRASQRIYNYLHWYQQKSHESPRLLTKYASQSISGIPSRFSGSGSGTDFILTINSVETEDFGMYFCQQSNSWPLTFGAGTKLELRR	0.65	0.72
HCV 208A-207 (antibody, V domains shown) VH: QGQLQQPGAEFVKPGASLKLSCRASGYTFTSYWIHWVKQRPGQGLEWIGEIDPSDSYINQNQKFRGKATLTVDKSSSTAYMELSGLTSEDSAVYYCARHYYGVLDSWGQGTTLTVSS VL: DIVLTQSPATLSVTPGDRVSLSCRASQRIYNYLHWYQQKSHESPRLLTKYASQSISGIPSRFSGSGSGTDFILTINSVETEDFGMYFCQQSNSWPLTFGAGTKLELRR	0.11	0.41
HCV 208B-793 (antibody, V domains shown) VH: EVKLVESGGGLVQPGGSLKLSCAASGFTFSSYAMSWVRQTPERRLEWVTYISNGGGSTYYSDTVKGRFTFSRDNAKNTLYLQMSSLKSEDTAMYYCARHGLGRTGFASWGQGTLVTVSA VL: DIVMTQSHKFMSTSVGDRVSITCKASQDVGTAVAWYQQKPGQSPKLLIYWASTRHTGVPDRFTGSGSGTDFTLTISNVQSEDLADYFCQQYSNYLTFGAGTKLEVKR	0.85	0.17
HCV 208B-822 (antibody, V domains shown) VH: QVQLKQSGPGLVQPSQSLSITCTVSGFSLITYGVHWVRQSPGKGLEWLGVIWGGGSTGYNAAFVSRLNITKDNSKSQVFFKMNSLQPDDTAIYYCARNGGATVFDYWGQGTTLTVSS VL: DIVMTQSPATLSVTPGDRVSLSCRASQTISDYLHWYQQKSHESPRLLIKYASQSISGIPSRFSGSGSGSHFTLSINSVEPEDVGVYYCQNGHSFPWTFGGGTKLEIKR	0.22	0.12
HCV 208B-612 (antibody, V domains shown) VH: EVQLQQSGPELVKPGASVKMSCKASGYRFTSYVMHWVRQKPGQGLEWIGYIDPHNDDTKYSEKFRGKATLTSDKSSTTAYMELSSLTSEDSAVYYCVRYSYDRDYSPMDYWGQGTSVTVSS VL: QIVLTQSPTLMSASPGEKVTMTCSASSTVTYIYWYQQKPGSSPRLWMYDTFNLVSGVPARFSGSRSGTSYFLTISSMEGEDAATYYCQQYSDSPYTFGGGTKLEIKR	0.18	1.2
HCV 208A-210 (antibody, V domains shown) VH: QVQLQQSGPELVKPGASMRISCKASGYTFTSYYVHWIKQRPGQGLEWIGCIYPGDVNTDYNEKFKGKATLTADKSSSTAYMQVSTLTSEDSAIYFCVLYYYGSFAYWGQGTLVTVSA VL: EIVLTQSPAITAASLGQNVTITCRASSSVSYMHWYRQKSGTSPQLWIYEISRRASGVPARFRASGSGTSYSLTISSMEAEDAAIYYCQQWNYPLTFGAGTKLEVKR	0.87	0.87
HCV 208B-672 (antibody, V domains shown) VH: EVKLVESGGSLVQPGGSLKLSCAASGFNFNTYAMSWVRQTPEKRLEWVAYISNGGGNTYYVDTVKGRFTISRDNAKNTLYLRMSSLKSEDTAMYYCARHGLYWGYSMDYWGQGTSVTVSS VL: DIQMTQSPSSLSASLGERVSLTCRASQDIGGSINWLQQEPDGTIKRLIYATSSLDSGVPKRFSGSRSGSDYSLTISSLESEDFVDYYCLQYASSPPTFGGGTKLEIKR	1.77	0.99
